# Measurements published in publication PMC10440475 (Heliyon, 2023).
# “And” between values parts separate entries of the source, which are not always exact repeats. Identical values can stand only once.
# Target: the molecule itself
# Test: PFO-PAGE
protein,measurement,value
eGFP-fused Shaker potassium channel protein (natural protein) MAAVAGLYGLGEDRQHRKKQQQQQQHQKEQLEQKEEQKKIAERKLQLREQQLQRNSLDGYGSLPKLSSQDEEGGAGHGFGGGPQHFEPIPHDHDFCERVVINVSGLRFETQLRTLNQFPDTLLGDPARRLRYFDPLRNEYFFDRSRPSFDAILYYYQSGGRLRRPVNVPLDVFSEEIKFYELGDQAINKFREDEGFIKEEERPLPDNEKQRKVWLLFEYPESSQAARVVAIISVFVILLSIVIFCLETLPEFKHYKVFNTTTNGTKIEEDEVPDITDPFFLIETLCIIWFTFELTVRFLACPNKLNFCRDVMNVIDIIAIIPYFITLATVVAEEEDTLNLPKAPVSPQDKSSNQAMSLAILRVIRLVRVFRIFKLSRHSKGLQILGRTLKASMRELGLLIFFLFIGVVLFSSAVYFAEAGSENSFFKSIPDAFWWAVVTMTTVGYGDMTPVGVWGKIVGSLCAIAGVLTIALPVPVIVSNFNYFYHRETDQEEMQSQNFNHVTSCPYLPGTLGQHMKKSSLSESSSDMMDLDDGVESTPGLTETHPGRSAVAPFLGAQQQQQQPVASSLSMSIDKQLQHPLQQLTQTQLYQQQQQQQQQQQNGFKQQQQQTQQQLQQQQSHTINASAAAATSGSGSSGLTMRHNNALAVSIETDV,stoichiometry N,2 and 4
